Measured values reported in publication PMC6179904 (Developmental Cell, 2018).
Where no end group is shown, it is not given here. The star is where a group is joined. Fluorescin = fluorescein label at the C-terminus, before the amide; Myristoyl = CCCCCCCCCCCCCC(=O)*

B1: c-SRC (Myr-GSNKSKPKDASQ) fluorescein-labeled myristoylated peptide (peptide)
peptide: Myristoyl-GSNKSKPKDASQ
modifications: also: fluorescein label, position not given here
B2: fluorescein-labeled myristoylated FMNL3 peptide (Myr-GNLESAEGVPGE-Fluorescin-amide) (peptide)
peptide: Myristoyl-GNLESAEGVPGE-{Fluorescin-NH2}
B3: fluorescein-labeled myristoylated FMNL1 peptide (Myr-GNAAGSAEQPAG-Fluorescin-amide) (peptide)
peptide: Myristoyl-GNAAGSAEQPAG-{Fluorescin-NH2}

Target: full-length UNC119A (UniProt Q13432 1-240)
Test: fluorescence polarisation

Binder	Kd [µM]
B1	0.125 ± 0.069
B2	0.856 ± 0.156
B3	0.0101 ± 0.0035
